Measurements reported in PMC3466262, “Crystal Structure of ATV^ORF273, a New Fold for a Thermo- and Acido-Stable Protein from the Acidianus Two-Tailed Virus” (PLoS ONE, 2012).

Key:
[1] = target: the molecule itself; test: SEC-MALS; Shodex KW803 column, 20 mM citrate buffer pH 3.6, 150 mM NaCl; protein injected at 4 mg/mL (121 uM)
[2] = target: the molecule itself; test: SEC-MALS; Shodex KW803 column, 20 mM Hepes pH 7.4, 100 mM NaCl; protein injected at 4 mg/mL (121 uM)

B1: ATV^ORF273, virion protein of the Acidianus two-tailed virus (recombinant, C-terminal hexa-histidine tag) (natural protein)
chain: MGEKITEEREFQSISEIPEEEIDATNDEEKLADIVENEIEKEIRKSKTRKCKTIENFYYYILRDGKIYPASDYDIEVEKGKRSANDIYAFVETDVTRDFDEFLFDIDYGLPSISDILKFYLEKAGFRIANEVPTPNLKYYIHAVVEFGEDRPQYLAVNIYDIDSLARALRIPQIVEQKLGNKPRTITADEFNDIERIVAEEQPILAGYTYDEALRIPYHYYVDHNNSFKDDALKIAHAYLQLFPTPYQVCYEWKARWFNKIDCLKLERLKPSS
notes: ATV ORF273, virion protein of Acidianus two-tailed virus, UniProt Q3V4T6; native molar mass 32154 Da, recombinant protein 32977 Da; The printed masses (32154 Da native, 32977 Da recombinant) fit the whole ORF plus a His6 tag that is still on the protein; no cleavage of the tag is described; Oligomeric state depends on pH: tetramer at pH 7.4 and 8.5, dimer at pH 3.6; The models hold residues …
[1]
  stoichiometry N: 2
[2]
  stoichiometry N: 4
